Data taken from patent publication US20250332257A1 (published 2025).
Numbering of substitutions follows the chain as printed.

T1: HPV E6 peptide on HLA-A*11:01 (human)
T1 peptide: TTLEQQYNK

B1: TCR013 (TCR, V domains shown)
Valpha: GQQVMQIPQYQHVQEGEDFTTYCNSSTTLSNIQWYKQRPGGHPVFLIQLVKSGEVKKQKRLTFQFGEAKKNSSLHITATQTTDVGTYFCAGPKITGGGNKLTFGTGTQLKVEL
Vbeta: DSGVTQTPKHLITATGQRVTLRCSPRSGDLSVYWYQQSLDQGLQFLIQYYNGEERAKGNILERFSAQQFPDLHSELNLSSLELGDSALYFCASSVGGGPNYGYTFGSGTRLTVV
B2: TCR090 (TCR, V domains shown)
Valpha: B1 Valpha with T81L, K93V, I94L
Vbeta: DSGVTQTPRYLITATGQRVTLRCSPRSGDLSVYWYQQSLDQGLQFLIQYYNGEERAKGNILERFSAQQFPDLHSELNLSSLELGDSALYFCASSVGGPNTGELFFGEGSRLTVL
B3: TCR028 (TCR, V domains shown)
Valpha: B1 Valpha with K93I, I94L
Vbeta: B2 Vbeta with R9K, Y10H, S94G, V95L, G96S
B4: TCR010 (TCR, V domains shown)
Valpha: AQSVTQLDSHVSVSEGTPVLLRCNYSSSYSPSLFWYVQHPNKGLQLLLKYTSAATLVKGINGFEAEFKKSETSFHLTKPSAHMSDAAEYFCVVSLSGGYNKLIFGAGTRLAVHP
Vbeta: DSGVTQTPKHLITATGQRVTLRCSPRSGDLSVYWYQQSLDQGLQFLIQYYNGEERAKGNILERFSAQQFPDLHSELNLSSLELGDSALYFCASSVTGSGYTFGSGTRLTVV

Molecular target: T1, HPV E6 peptide on HLA-A*11:01
Test: multimer staining

Binding result, recognises:
B1
B2
B3
B4
